Common to all, as to assay: cross-linking
Data set [1] concerns the molecule itself.
Data set [2] deals with the molecule itself. The source holds these as a separate data set.
Data set [3] deals with the molecule itself. The source holds these as a separate data set.

Results on 1 protein are retold here after paper PMC5380474 (Molecular microbiology, 2017).

Read-outs that look alike come from different tables or passages of the source.

B1: FLAG-tagged FlhA D170C/R185C (natural protein)
chain: MANLVAMLRLPSNLKSTQWQILAGPILILLILSMMVLPLPAFILDLLFTFNIALSIMVLLVAMFTQRTLDFAAFPTILLFTTLLRLALNVASTRIILMEGHTGAAAAGKVVEAFGHFLVGGNFAIGIVVFIILVIINFMVITKGAGRIAEVGARFVLDGMPGKQMAIDACLNAGLIGEDEAKKRCSEVTQEADFYGSMDGASKFVRGDAIAGILIMVINVVGGLLVGVLQHGMSIGSAAESYTLLTIGDGLVAQIPALVISTAAGVIVTRVSTDQDVGEQMVGQLFSNPRVMLLAAAVLGLLGMVPGMPNLVFLLFTAALLGLAWWLRGREEKAPEEPQPVKMPENNSVVEATWNDVQLEDSLGMEVGYRLIPMVDFQQDGELLGRIRSIRKKFAQDMGFLPPVVHIRDNMDLQPARYRILMKGVEIGSGDAYPGRWLAINPGTAAGTLPGEKTVDPAFGLDAIWIESALKEQAQIQGFTVVEASTVVATHLNHLIGQFSAELFGRQEAQQLLDRVSQEMPKLTEDLVPGVVTLTTLHKVLQNLLAEKVPIRDMRTILETLAEHAPLQSDPHELTAVVRVALGRAITQQWFPGNEEVQVIGLDTALERLLLQALQGGGGLEPGLADRLLAQTQEALSRQEMLGAPPVLLVNHALRPLLSRFLRRSLPQLVVLSNLELSDNRHIRMTATIGGK
Usually stoichiometry N stands for a count of units in the complex or per binding partner. Take B1: the “stoichiometry N” value in “cross-linking [1]” worked out at 7; in “cross-linking [2]”, 9; in the data set “cross-linking [3]” it was 5.
